Assay results taken from patent US20020062008A1 (ICOS, published 2002).

B2: soluble VCAM-1/IgG1 fusion protein (seven extracellular immunoglobulin-like domains) (Fc fusion, UniProt P19320 25-698, looked up)
chain: FKIETTPESRYLAQIGDSVSLTCSTTGCESPFFSWRTQIDSPLNGKVTNEGTTSTLTMNPVSFGNEHSYLCTATCESRKLEKGIQVEIYSFPKDPEIHLSGPLEAGKPITVKCSVADVYPFDRLEIDLLKGDHLMKSQEFLEDADRKSLETKSLEVTFTPVIEDIGKVLVCRAKLHIDEMDSVPTVRQAVKELQVYISPKNTVISVNPSTKLQEGGSVTMTCSSEGLPAPEIFWSKKLDNGNLQHLSGNATLTLIAMRMEDSGIYVCEGVNLIGKNRKEVELIVQEKPFTVEISPGPRIAAQIGDSVMLTCSVMGCESPSFSWRTQIDSPLSGKVRSEGTNSTLTLSPVSFENEHSYLCTVTCGHKKLEKGIQVELYSFPRDPEIEMSGGLVNGSSVTVSCKVPSVYPLDRLEIELLKGETILENIEFLEDTDMKSLENKSLEMTFIPTIEDTGKALVCQAKLHIDDMEFEPKQRQSTQTLYVNVAPRDTTVLVSPSSILEEGSSVNMTCLSQGFPAPKILWSRQLPNGELQPLSENATLTLISTKMEDSGVYLCEGINQAGRSRKEVELIIQVTPKDIKLTAFPSESVKEGDTVIISCTCGNVPETWIILKKKAETGDTVLKSIDGAYTIRKAQLKDAGVYECESKNKVGSQLRSLTLDVQGRENNKDYFSPE
notes: domain: seven extracellular immunoglobulin-like domains; not shown: IgG1 portion
B6: soluble ICAM-1/IgG1 fusion protein (Fc fusion, UniProt P05362 28-480, looked up)
chain: QTSVSPSKVILPRGGSVLVTCSTSCDQPKLLGIETPLPKKELLLPGNNRKVYELSNVQEDSQPMCYSNCPDGQSTAKTFLTVYWTPERVELAPLPSWQPVGKNLTLRCQVEGGAPRANLTVVLLRGEKELKREPAVGEPAEVTTTVLVRRDHHGANFSCRTELDLRPQGLELFENTSAPYQLQTFVLPATPPQLVSPRVLEVDTQGTVVCSLDGLFPVSEAQVHLALGDQRLNPTVTYGNDSFSAKASVSVTAEDEGTQRLTCAVILGNQSQETLQTVTIYSFPAPNVILTKPEVSEGTEVTVKCEAHPRAKVTLNGVPAQPLGPRAQLLLKATPEDNGRSFSCSATLEVAGQLIHKNQTRELRVLYGPRLDERDCPGNWTWPENSQQTPMCQAWGNPLPELKCLKDGTFPLPIGESVTVTRDLEGTYLCRARSTQGEVTRKVTVNVLSPRYE
notes: not shown: IgG1 portion (detected with anti-human IgG1)

Key:
[1] = target: T1, bovine serum albumin (bovine, UniProt P02769 25-607); assay: ELISA, bound IgG4 detected with HP6023
T1 construct: also called BSA
T1 sequence (P02769 25-607 limits assumed): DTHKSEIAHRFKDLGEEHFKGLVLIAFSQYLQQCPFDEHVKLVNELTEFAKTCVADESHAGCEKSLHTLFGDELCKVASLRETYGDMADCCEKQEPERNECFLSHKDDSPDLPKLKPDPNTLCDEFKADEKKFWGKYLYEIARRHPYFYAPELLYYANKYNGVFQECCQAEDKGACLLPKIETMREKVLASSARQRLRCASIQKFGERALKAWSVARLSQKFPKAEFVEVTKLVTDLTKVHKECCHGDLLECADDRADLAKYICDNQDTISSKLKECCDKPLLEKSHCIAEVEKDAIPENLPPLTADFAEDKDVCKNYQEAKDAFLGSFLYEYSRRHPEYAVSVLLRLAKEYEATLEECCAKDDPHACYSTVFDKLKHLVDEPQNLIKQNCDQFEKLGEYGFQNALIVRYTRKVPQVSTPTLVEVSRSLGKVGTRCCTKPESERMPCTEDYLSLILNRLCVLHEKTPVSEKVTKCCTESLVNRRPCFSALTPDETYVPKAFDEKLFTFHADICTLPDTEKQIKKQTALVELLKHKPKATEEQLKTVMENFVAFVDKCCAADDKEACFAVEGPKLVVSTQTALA

[2] = target: B6; assay: ELISA, bound IgG4 detected with HP6023
[3] = target: T2, LFA-1 leucine zipper fusion protein (soluble CD11a/CD18) (UniProt P20701 26-1090; P05107 23-700); assay: ELISA on LFA-1LZ captured with TS2/4.1
T2 construct: also called LFA-1LZ; captured CD11a/CD18
Procedure: (§1) The same protocol was used to immobilize the anti-CD11a antibody TS2/4.1 for immobilization of a LFA-1 leucine zipper (LFA-1LZ) fusion protein; LFA-1 was used as a negative control for VCAM-1 binding and a positive control for ICAM-1 binding. The plates were blocked with 300 μl/well 3% bovine serum albumin for one hour and washed in D-PBS. Tissue culture supernatants from stable CHO transfectants expressing either αd/CD18LZ or LFA-1LZ were added at 100 μl/well and allowed to incubate for 6 to 8 hours at 4° C. The plates were washed twice with Tris-buffered saline with Tween® 20 (TBS-T), followed by one wash with TBS (no Tween®) containing 2 mM each calcium chloride, magnesium chloride, and manganese chloride. The latter served as assay and wash buffer during the remainder of the assay.
(§2) After integrin capture, the plates were washed three times with 250 μl/well TBS. Purified CAM/Ig (see Example 12) was added to each well following serial 2:3 dilutions starting at a concentration of 10 to 20 μg/ml. CAM/Igs were allowed to bind for two hours at room temperature before plates were washed as above. Bound fusion protein was detected with horseradish peroxidase-conjugated goat anti-human Ig antibody (Jackson Labs) followed by development with o-phenyldiamine (OPD).

[4] = target: T3, human αd/CD18 heterodimer expressed on transfected cells (COS, CHO, JY) (human, UniProt P05107 23-769); assay: adhesion of CHO transfectants to immobilized CAM, crystal violet A570
T3 construct: whole, on cells; also used as detergent lysate in immunoprecipitations; also called αd/CD18 CHO transfected cells; αd/CD18 co-transfectants
Procedure: (§3) The ability of CHO cells expressing either α₄β₁ or αdβ₂ to bind a five domain VCAM-1/Ig fusion protein or ICAM-1/Ig fusion protein was tested as follows. CAMs were immobilized on 96 well microtiter plates at 0.5 μg/well in bicarbonate buffer (pH 9.5). Plates were blocked with 1% fish gelatin and treated with either buffer, irrelevant antibody or a blocking VCAM-1 antibody. […] Cells were washed before addition to the CAM-coated wells at a density of 100,000 cells per well. Cells were incubated in the presence of the immobilized […] for twenty minutes before addition of 5% glutaraldehyde. Following fixation, plates were washed with distilled water and cells were stained with 1% crystal violet, After destaining with 66% ethanol for several hours, absorbance at 570 nm was measured on a Dynatech plate reader.

[5] = target: T3, human αd/CD18 heterodimer expressed on …; assay: adhesion of αdβ2-transfected CHO cells to coated wells
Procedure: For transfected and parental CHO cells, adhesion was performed using coated plates identical to those employed for eosinophil adhesion. […] A modification of a previously described gentle washing technique [Shanley, et al., J. Immunol. 160:1014 (1998)] was therefore employed. This technique allowed non-adherent cells to be dislodged from the inverted plate with centrifugation at 1×g for 30 minutes at 20° C. Remaining adherent cells were then removed using 0.1 M EDTA (Sigma) and counted by flow cytometry. In addition to VCAM-1, E-selection (100 ng/ml) was also used to coat wells in some adhesion experiments. In addition to the blocking monoclonal antibodies used in the eosinophil studies, immobilized VCAM-1 was pretreated with an appropriate dilution of F(ab′)₂ anti-VCAM-1 monoclonal antibody prior to the addition of CHO cells.
Chinese hamster ovary cells were transfected as described in Example 11. The αdβ₂-transfected CHO cells were cultured in DMEM/F12 media with 1 mM pyruvate and 2 mM L-glutamine (Biofluids) supplemented with 10% dialyzed FBS, 100 U/ml penicillin, 100 μg/ml streptomycin, and 600 μg/ml G418 (all from Life Technologies). Media for culture of the parental CHO cell line was similar except that non-dialyzed FBS (Life Technologies) was used and 0.1 mM hypoxanthine and 16 nM thymidine (Sigma) were used in place of the G418. […]

[6] = target: T4, soluble ICAM-R/IgG1 fusion protein (UniProt P32942 30-485, limits assumed); assay: ELISA, bound IgG4 detected with HP6023
T4 construct: not shown: IgG1 portion
T4 sequence (looked up): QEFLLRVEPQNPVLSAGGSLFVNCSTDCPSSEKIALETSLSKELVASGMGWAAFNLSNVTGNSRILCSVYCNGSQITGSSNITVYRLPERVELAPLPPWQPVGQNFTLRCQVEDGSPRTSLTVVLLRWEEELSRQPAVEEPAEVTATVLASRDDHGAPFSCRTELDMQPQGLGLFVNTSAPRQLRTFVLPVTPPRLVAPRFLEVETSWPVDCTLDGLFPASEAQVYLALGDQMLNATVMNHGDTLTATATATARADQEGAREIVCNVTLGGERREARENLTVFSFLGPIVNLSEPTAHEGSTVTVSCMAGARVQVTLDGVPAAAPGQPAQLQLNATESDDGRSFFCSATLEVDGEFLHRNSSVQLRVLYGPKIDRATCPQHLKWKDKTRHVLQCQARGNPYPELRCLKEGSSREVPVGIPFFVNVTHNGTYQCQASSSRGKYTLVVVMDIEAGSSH

[7] = target: B2; assay: ELISA, bound IgG4 detected with HP6023
[8] = target: T2, LFA-1 leucine zipper fusion protein …; assay: ELISA, CAM/Ig on captured soluble CD11a/CD18
Procedure: as §1, §2

[9] = target: T3, human αd/CD18 heterodimer expressed on …; assay: adhesion of CHO transfectants to immobilized CAM, crystal violet
Procedure: as §3

[10] = target: T5, α4β1 expressed on CHO cells (UniProt P13612 34-1032; P05556 21-798, limits assumed); assay: as above
T5 construct: whole, on cells; also called α4 transformed CHO cells; α4 transfected line
Procedure: as §3

B1: human αd I domain/IgG4 fusion protein (Fc fusion)
chain: IVFLIDGSGSIDQNDFNQMKGFVQAVMGQFEGTDTLFALMQYSNLLKIHFTFTQFRTSPSQQSLVDPIVQLKGLTFTATGILTVVTQLFHHKNGARKSAKKILIVITDGQKYKDPLEYSDVIPQAEKAGIIRYAIGVGHAFQGPTARQELNTISSAPPQDHVFKVDNFAALGSIQKQLQEKIYAVEGTQSRASSSFQHEMSQE
notes: Residue limits approximate; also called Iαd/IgG4; I domain chimera; not shown: human IgG4 portion
B1: no binding [1]; no binding [2].

B2: no binding [3].

B3: VCAM-1 domains 1 and 2 fused to human immunoglobulin Fc (Fc fusion, UniProt P19320 25-220, looked up, not shown: a dimerising Fc or GST)
chain: FKIETTPESRYLAQIGDSVSLTCSTTGCESPFFSWRTQIDSPLNGKVTNEGTTSTLTMNPVSFGNEHSYLCTATCESRKLEKGIQVEIYSFPKDPEIHLSGPLEAGKPITVKCSVADVYPFDRLEIDLLKGDHLMKSQEFLEDADRKSLETKSLEVTFTPVIEDIGKVLVCRAKLHIDEMDSVPTVRQAVKELQVY
notes: domain: domains 1 and 2; also called two domain form of VCAM-1
B3: binds [4].

B4: E-selectin, immobilized recombinant (ligand, UniProt P16581 22-556, looked up)
chain: WSYNTSTEAMTYDEASAYCQQRYTHLVAIQNKEEIEYLNSILSYSPSYYWIGIRKVNNVWVWVGTQKPLTEEAKNWAPGEPNNRQKDEDCVEIYIKREKDVGMWNDERCSKKKLALCYTAACTNTSCSGHGECVETINNYTCKCDPGFSGLKCEQIVNCTALESPEHGSLVCSHPLGNFSYNSSCSISCDRGYLPSSMETMQCMSSGEWSAPIPACNVVECDAVTNPANGFVECFQNPGSFPWNTTCTFDCEEGFELMGAQSLQCTSSGNWDNEKPTCKAVTCRAVRQPQNGSVRCSHSPAGEFTFKSSCNFTCEEGFMLQGPAQVECTTQGQWTQQIPVCEAFQCTALSNPERGYMNCLPSASGSFRYGSSCEFSCEQGFVLKGSKRLQCGPTGEWDNEKPTCEAVRCDAVHQPPKGLVRCAHSPIGEFTYKSSCAFSCEEGFELHGSTQLECTSQGQWTEEVPSCQVVKCSSLAVPGKINMSCSGEPVFGTVCKFACPEGWTLNGSAARTCGATGHWSGLLPTCEAPTESNIP
notes: also called E-selection
B4: no binding (tested: 100 ng/ml coat) [5].

B5: CD11a I domain/IgG chimeric protein (Fc fusion, UniProt P20701 153-332, looked up)
chain: GNVDLVFLFDGSMSLQPDEFQKILDFMKDVMKKLSNTSYQFAAVQFSTSYKTEFDFSDYVKRKDPDALLKHVKHMLLLTNTFGAINYVATEVFREELGARPDATKVLIIITDGEATDSGNIDAAKDIIRYIIGIGKHFQTKESQETLHKFASKPASEFVKILDTFEKLKDLFTELQKKIY
notes: domain: I domain; Negative control; also called CD11a/IgG4 protein; not shown: IgG4 portion
B5: no binding [6]; no binding [7].

For B6, the fold above background [8] was ~15 fold, the binding result [9] was “no binding (tested: 0.5 µg/well coat)” and the binding result [10] was “no binding (tested: 0.5 µg/well coat)”.
